To fix the notation:
B1: Ad6 hexon, on wild-type human adenovirus type 6 virions (natural protein)
chain: ATPSMMPQWSYMHISGQDASEYLSPGLVQFARATETYFSLNNKFRNPTVAPTHDVTTDRSQRLTLRFIPVDREDTAYSYKARFTLAVGDNRVLDMASTYFDIRGVLDRGPTFKPYSGTAYNALAPKGAPNSCEWEQNETAQVDAQELDEEENEANEAQAREQEQAKKTHVYAQAPLSGIKITKEGLQIGTADATVAGAGKEIFADKTFQPEPQVGESQWNEADATAAGGRVLKKTTPMKPCYGSYARPTNSNGGQGVMVEQNGKLESQVEMQFFSTSTNATNEVNNIQPTVVLYSEDVNMETPDTHLSYKPKMGDKNAKVMLGQQAMPNRPNYIAFRDNFIGLMYYNSTGNMGVLAGQASQLNAVVDLQDRNTELSYQLLLDSIGDRTRYFSMWNQAVDSYDPDVRIIENHGTEDELPNYCFPLGGIGITDTFQAVKTTAANGDQGNTTWQKDSTFAERNEIGVGNNFAMEINLNANLWRNFLYSNIALYLPDKLKYNPTNVEISDNPNTYDYMNKRVVAPGLVDCYINLGARWSLDYMDNVNPFNHHRNAGLRYRSMLLGNGRYVPFHIQVPQKFFAIKNLLLLPGSYTYEWNFRKDVNMVLQSSLGNDLRVDGASIKFDSICLYATFFPMAHNTASTLEAMLRNDTNDQSFNDYLSAANMLYPIPANATNVPISIPSRNWAAFRGWAFTRLKTKETPSLGSGYDPYYTYSGSIPYLDGTFYLNHTFKKVAITFDSSVSWPGNDRLLTPNEFEIKRSVDGEGYNVAQCNMTKDWFLVQMLANYNIGYQGFYIPESYKDRMYSFFRNFQPMSRQVVDDTKYKDYQQVGIIHQHNNSGFVGYLAPTMREGQAYPANVPYPLIGKTAVDSITQKKFLCDRTLWRIPFSSNFMSMGALTDLGQNLLYANSAHALDMTFEVDPMDEPTLLYVLFEVFDVVRVHQPHRGVIETVYLRTPFSAGNATT

Test in all cases: SPR
In one assay the target is human prothrombin (FII) (human, UniProt P00734 44-622, gamma-carboxylated glutamate residues in the Gla domain).
Assay [1] deals with B1.
The target in assay [2] is T1, Ad5 hexon, on wild-type human adenovirus type 5 virions (human adenovirus type 5, UniProt P04133 2-952).
T1 chain: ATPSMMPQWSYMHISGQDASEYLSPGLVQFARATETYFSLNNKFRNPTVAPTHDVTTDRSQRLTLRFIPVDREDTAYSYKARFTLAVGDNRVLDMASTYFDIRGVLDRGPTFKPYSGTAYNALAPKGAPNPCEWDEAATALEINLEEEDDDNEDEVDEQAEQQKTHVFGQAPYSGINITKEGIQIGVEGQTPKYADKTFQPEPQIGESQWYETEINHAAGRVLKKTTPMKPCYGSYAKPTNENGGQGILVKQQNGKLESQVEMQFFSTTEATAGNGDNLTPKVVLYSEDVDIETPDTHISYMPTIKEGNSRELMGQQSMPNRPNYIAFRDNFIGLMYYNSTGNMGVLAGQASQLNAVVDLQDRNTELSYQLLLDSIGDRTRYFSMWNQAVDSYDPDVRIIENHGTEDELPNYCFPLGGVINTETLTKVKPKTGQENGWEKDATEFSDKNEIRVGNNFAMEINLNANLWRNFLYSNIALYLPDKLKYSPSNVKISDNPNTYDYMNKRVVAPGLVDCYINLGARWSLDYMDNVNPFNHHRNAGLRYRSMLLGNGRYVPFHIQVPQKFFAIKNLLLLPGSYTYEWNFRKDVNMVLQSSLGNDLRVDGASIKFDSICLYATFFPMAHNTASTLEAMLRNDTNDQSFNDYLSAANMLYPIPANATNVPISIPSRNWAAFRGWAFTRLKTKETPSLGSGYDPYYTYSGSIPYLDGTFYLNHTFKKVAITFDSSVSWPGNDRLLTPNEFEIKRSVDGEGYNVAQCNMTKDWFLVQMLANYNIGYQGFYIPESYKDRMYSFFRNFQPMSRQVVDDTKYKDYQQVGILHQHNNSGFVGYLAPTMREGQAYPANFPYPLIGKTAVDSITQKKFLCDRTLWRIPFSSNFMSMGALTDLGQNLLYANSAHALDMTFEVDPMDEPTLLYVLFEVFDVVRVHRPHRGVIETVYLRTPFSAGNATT

For assay [3], the target named is T2, Ad1 hexon, on wild-type human adenovirus type 1 virions (human adenovirus type 1).
T2 chain: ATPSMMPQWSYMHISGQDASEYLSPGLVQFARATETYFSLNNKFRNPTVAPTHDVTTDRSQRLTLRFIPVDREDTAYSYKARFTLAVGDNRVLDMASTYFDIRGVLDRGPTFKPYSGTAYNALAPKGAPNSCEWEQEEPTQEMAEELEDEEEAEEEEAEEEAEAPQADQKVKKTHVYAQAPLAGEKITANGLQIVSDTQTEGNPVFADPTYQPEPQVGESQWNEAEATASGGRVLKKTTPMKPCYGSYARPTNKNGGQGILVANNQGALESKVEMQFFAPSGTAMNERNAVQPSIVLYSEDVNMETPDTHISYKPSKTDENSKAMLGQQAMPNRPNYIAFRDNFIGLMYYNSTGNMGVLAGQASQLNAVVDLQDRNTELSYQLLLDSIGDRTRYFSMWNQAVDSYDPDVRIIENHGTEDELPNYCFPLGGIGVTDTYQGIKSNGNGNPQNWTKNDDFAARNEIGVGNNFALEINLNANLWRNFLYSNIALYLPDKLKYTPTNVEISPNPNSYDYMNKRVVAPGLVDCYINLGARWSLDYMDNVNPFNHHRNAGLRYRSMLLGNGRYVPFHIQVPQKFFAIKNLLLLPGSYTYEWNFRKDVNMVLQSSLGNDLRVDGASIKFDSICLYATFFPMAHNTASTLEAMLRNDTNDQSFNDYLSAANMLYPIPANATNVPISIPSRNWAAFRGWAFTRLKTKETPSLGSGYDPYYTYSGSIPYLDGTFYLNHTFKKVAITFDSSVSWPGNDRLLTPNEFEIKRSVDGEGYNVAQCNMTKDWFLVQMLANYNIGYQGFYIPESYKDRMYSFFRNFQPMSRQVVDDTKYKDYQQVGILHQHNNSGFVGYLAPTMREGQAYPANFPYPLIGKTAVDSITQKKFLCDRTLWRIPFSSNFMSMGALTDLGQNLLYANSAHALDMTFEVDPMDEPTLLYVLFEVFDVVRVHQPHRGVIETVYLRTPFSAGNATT

Assay [4] addresses T3, Ad2 hexon, on wild-type human adenovirus type 2 virions (human adenovirus type 2, UniProt P03277 1-968).
T3 chain: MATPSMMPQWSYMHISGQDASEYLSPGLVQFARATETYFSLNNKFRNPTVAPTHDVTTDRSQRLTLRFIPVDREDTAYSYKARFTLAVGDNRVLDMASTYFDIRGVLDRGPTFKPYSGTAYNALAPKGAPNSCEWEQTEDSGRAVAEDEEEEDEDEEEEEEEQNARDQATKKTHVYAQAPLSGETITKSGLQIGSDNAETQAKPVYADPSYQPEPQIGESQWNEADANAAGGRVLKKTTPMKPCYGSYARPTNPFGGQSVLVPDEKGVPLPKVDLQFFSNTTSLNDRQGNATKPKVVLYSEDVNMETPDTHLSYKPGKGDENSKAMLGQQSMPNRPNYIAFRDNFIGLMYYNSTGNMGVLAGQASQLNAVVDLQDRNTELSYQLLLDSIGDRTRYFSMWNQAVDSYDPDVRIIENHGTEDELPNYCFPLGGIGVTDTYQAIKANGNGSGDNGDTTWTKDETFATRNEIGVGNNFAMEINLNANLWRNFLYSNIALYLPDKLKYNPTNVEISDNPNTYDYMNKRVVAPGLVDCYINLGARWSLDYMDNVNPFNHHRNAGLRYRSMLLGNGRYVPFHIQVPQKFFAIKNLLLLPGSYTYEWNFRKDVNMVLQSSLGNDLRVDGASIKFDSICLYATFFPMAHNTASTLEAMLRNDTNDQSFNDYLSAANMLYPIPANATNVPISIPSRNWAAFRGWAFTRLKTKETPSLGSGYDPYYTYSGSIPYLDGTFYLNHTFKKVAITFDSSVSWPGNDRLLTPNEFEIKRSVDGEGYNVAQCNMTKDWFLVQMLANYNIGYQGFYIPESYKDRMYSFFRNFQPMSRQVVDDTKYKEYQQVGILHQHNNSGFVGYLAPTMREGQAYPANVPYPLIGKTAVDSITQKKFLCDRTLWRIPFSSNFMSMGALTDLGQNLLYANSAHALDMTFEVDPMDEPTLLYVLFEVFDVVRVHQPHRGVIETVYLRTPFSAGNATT

In paper PMC9536601 (2022) one finds Kd data, which are given here for five molecules.

In general, Kd refers to the constant that tells how readily two partners part at equilibrium. A low value points to higher affinity. As to B1, in the assay with human prothrombin (FII), the Kd stood at 2.7 nM. That is a single-digit nanomolar value.

B2: human coagulation factor X (natural protein)
chain 1: ANSFLEEMKKGHLERECMEETCSYEEAREVFEDSDKTNEFWNKYKDGDQCETSPCQNQGKCKDGLGEYTCTCLEGFEGKNCELFTRKLCSLDNGDCDQFCHEEQNSVVCSCARGYTLADNGKACIPTGPYPCGKQTLER
chain 2: SVAQATSSSGEAPDSITWKPYDAADLDPTENPFDLLDFNQTQPERGDNNLTRIVGGQECKDGECPWQALLINEENEGFCGGTILSEFYILTAAHCLYQAKRFKVRVGDRNTEQEEGGEAVHEVEVVIKHNRFTKETYDFDIAVLRLKTPITFRMNVAPACLPERDWAESTLMTQKTGIVSGFGRTHEKGRQSTRLKMLEVPYVDRNSCKLSSSFIITQNMFCAGYDTKQEDACQGDSGGPHVTRFKDTYFVTGIVSWGEGCARKGKYGIYTKVTAFLKWIDRSMKTRGLPKAKSHAPEVITSSPLK
modifications: gamma-carboxylated glutamate residues in the Gla domain
On to B2, for which the Kd turned out to be 28 nM in assay [1], 0.74 nM in assay [2] and 220 nM in assay [3].

B3: bovine coagulation factor X (natural protein)
chain 1: ANSFLEEVKQGNLERECLEEACSLEEAREVFEDAEQTDEFWSKYKDGDQCEGHPCLNQGHCKDGIGDYTCTCAEGFEGKNCEFSTREICSLDNGGCDQFCREERSEVRCSCAHGYVLGDDSKSCVSTERFPCGKFTQGRS
chain 2: WAIHTSEDALDASELEHYDPADLSPTESSLDLLGLNRTEPSAGEDGSQVVRIVGGRDCAEGECPWQALLVNEENEGFCGGTILNEFYVLTAAHCLHQAKRFTVRVGDRNTEQEEGNEMAHEVEMTVKHSRFVKETYDFDIAVLRLKTPIRFRRNVAPACLPEKDWAEATLMTQKTGIVSGFGRTHEKGRLSSTLKMLEVPYVDRSTCKLSSSFTITPNMFCAGYDTQPEDACQGDSGGPHVTRFKDTYFVTGIVSWGEGCARKGKFGVYTKVSNFLKWIDKIMKARAGAAGSRGHSEAPATWTVPPPLPL
modifications: gamma-carboxylated glutamate residues in the Gla domain
As for B3, the values for the equilibrium dissociation constant (Kd) in assay [4], in assay [1] and in assay [3] were 73 nM, 100 nM and 160 nM, respectively.

B4: mouse prothrombin (FII) (natural protein)
chain: not shown
modifications: gamma-carboxylated glutamate residues in the Gla domain
Molecule B4 gave a Kd in assay [3] of 14 nM. In other words, the double-digit nanomolar range.

B5: bovine prothrombin (FII) (natural protein)
chain: not shown
modifications: gamma-carboxylated glutamate residues in the Gla domain
As to B5, the Kd in assay [3] was determined as 37 nM.
